# Test: label from the status in PepcDB records
row,Sequence,protein production
1,MSDAFTDVAKMKKIKEEIKAHEGQVVEMTLENGRKRQKNRLGKLIEVYPSLFIVEFGDVEGDKQVNVYVESFTYSDILTEKNLIHYLD,not failed
2,MLLTQYEKYKRGFKFDHVWPILKGIEKFANDNMMTPASSPSPGMNSIDLNMDSEDANFSLSSRPMGLKKTKLKQLLEQNDKLIKAITKGTSERNEIQRQKIEVDRMKEENKILFADLNSISDPSSRAYIENERKRILEKRAQTNQHEEDGEGSQYHGSQYRASHYQESPSHGKQVQGEPDQGEDQRSPNNQEDFTQYYNYLSGTENIFP,failed
3,MTETNESSGVNLKKDVKFSIIIPAHNEEKYIRKCLDSIAKASEAYKEQTEVIVVLNRCTDKTEEIAKSYNCVTLKNNDKNLSKIRNAGAKIANGEIIVTIDADTIMTESMLSNVDKYLASGKYIGGGVNGKFERISLGIFLSAMLIIIPLLFKYGAISVGIFWCYRKDFMAINGFNENMLMAEDADFAKRLKEWGKKNNKKFGTIKNGMITSCRRFDTYGDWTLLKNPKVILAYLKGNDRKYADKTYYDNQER,failed
4,MMIITTMQDAIGRTPVFKFTNKDYPIPLNSAIYAKLEHLNPGGSVKDRLGQYLIGEGFKTGKITSKTTIIEPTAGNTGIALALVAIKHHLKTIFVVPEKFSTEKQQIMRALGALVINTPTSEGISGAIKKSKELAESIPDSYLPLQFENPDNPAAYYHTLAPEIVQELGTNLTSFVAGIGSGGTFAGTARYLKERIPAIRLIGVEPEGSILNGGEPGPHEIEGIGVEFIPPFFENLDIDGFETISDEEGFSYTRKLAKKNGLLVGSSSGAAFVAALKEAQRLPEGSQVLTIFPDVADRYLSKGIYL,failed
5,MAEASSLVGKLETEVEIKASAKKFHHMFTERPHHVSKATPDKIHGYGKLTVGKNKIEAVDPEKNLITFKVLEGDLMNEYKSFAFTLQVTPKQGESGSIAHWHLEYEKISEEVAHPETLLQFCVEISKEIDEHLLAEE,failed
6,GNSKSRNDRTETVDKEVIKAPEFDADSAYQYIQVQADFGPRVPNTQAHKECGEYLAGQLEKFGAKVYNQYADLIAYDGTILKSRNIIGAYKPESKKRILLCAHWDSRPYADNDPDPKNHHTPILGVNDGASGVGVLLEIARQIQKEQPALGIDIVFFDSEDYGIPEFYDGKYKQDTWCLGSQYWARTPHVQNYNARYGILLDMVGGKDATFYYEGYSARTARSEMKKIWKKAHELGYGKYFVKEDGGETVDDHIYVNKLARIPCVDIINYDAGNPQSSFGSFWHTVNDTMENIDRNTLKAVGQTVMDVIYNEK,not failed
7,MNNFVSELQSYFASKYPFLSANIPRQQQLLGDSWSQEFDGELIKHFGTIEELRTAADGYAKFAMDSLLLTAKFQKTKDYDNKTYAECASEVYQSESYMHSLYLPGILLSHYLWKHHYAMYQFYKSIVVPVLPKSGLFIDVGVGTGFYSRNLLRDSQMTGIGCDMSPHSLSYTRSTLSKFGTVDKYSFCLCDYYHFNQYFQSTADFILSIEVLEHLEDPMKMLESLYKSLKPGGLGLISAAVNAPNADHIYLYRSCEDVRHQLIKAGFEIRHDTCDEAYEARTIGEVVPVNYGALVCKPS,failed
8,MTISEVSKKYELSADTLRYYERIGLIPPVNRNKSGIRSFTEEDCEWVNFIKCMRGAGLSIETLIEYVAMFQQGSSTIKARKELLIEQRNQLAKRIEEMQKTLERLNFKIDRYEEGIIEKEKVLKSSRNKKMEAVS,failed
9,MNRFIGYIQVACCCLLLCASCVRDGMDEDCNSYVRFVYDYNLEYIDLFHKQATKMNLYVFDEKGVFVTELKEESGAFAPDYLMTLPGAMAGRRYIFVAWSGLYGESYDKVTLTPGVSTLEDLEVSVNNLKTRIGGGVVDRELHLLWHGKQTEVSPQYNNDITTVSLLKNTKKFRIIMQMLDDSSIHVDDYDFRIISPNGRYNHENGLLGDETDEKVEYTAYHTEDDPETGAIAELNTLRLMTDTENRLVITHKSSGNVILDIPLNKYLNALRLQQYADIPLQEYLDRADKHGIILFFKGMDGNGNYISVDVQINGWLIRKQEVDGV,failed
10,MSESKEMVRGTFLITISILITKVLGVLFIIPFTALIGGQANMAPFTYAYAPYNIAIAIATAGVPLAASKYVAKYNALGAYKVSQKFYKSSFVVMSITGIVGFLVLYLLAPYIAELTLSRNTHGNNGWTVADITWIIRIISMVVIFIPVLATWRGIFQGYKSMGPTAVSEVTEQIARIVFILVGSYLTLNVFGGTVLQANGIATFAAAIGAIAGILTLWYYWIKRRKNIKKMIDSDTANLNVSYGKMYKEIIAYSIPFVIVSLNFPLFNLVDQFTHNGALNLVGVKPGLQDIFFNMLNMSTNKIVMIPTSLSAGFAVSLIPFITKTYEEGRYAEMHRQIRTSIGVLMFITVPASIGIMALAQPLFTVFYGFDPVVHGHDPNFDGSRLLFYYAPVAILISLLSVTASMLQGIDKQKLTVFIILGSVLIKLILNYPLIMLLHTPGAVLSTAIALLFAICCNFYILKKYANFKFSYSWIHLAKIILISIIMMIGVEVIFFILRLFLEPTRFNYLIIVAIGVIVGAIIYGGITIKTKLADEFLGDIPAKIRRKVKMLR,failed
11,MFLLSGDPCFKTPPSTAKSISIPGQDSSLQLTCKGGGTSSGGSSTNSLTGSRPPKARPTILSSGLPEEPDQNLSSPEEVFHSGHSRNSSYASQQSKISGYSTEHSRSSSLSDLTHRRNTSTSSSASGGLGMTVEGPEGSEREHRPPEKPPRPPRPLHLSDRSFRRKKDSVESHPTWVDDTRIDADAIVEKIVQSQDFTDGSNTEDSNLRLFVSRDGSATLSGIQLATRVSSGVYEPVVIESH,failed
12,MKRSTRFQQRSLFAIGGLGLLIGVAFVLVQFRATLIFTVFLYYASRPIYRKLESVSTPSYFSEYSLPYRRQILAVTTISVFLLPFLLLFTYTLALVVPAVQQFIGQNDLASGYLSAIQSADSGGLPEPIAGLQISDLLDMSPEEIVTILNAPSVRTWIEQTLGTLISSIGVFADVGIQAFLLLSGTYYLLTDGPRLSRWLFDHFDESGVVESYAIAVDDELSSILFGNILNALVTGIIGIVVFSAYNSISPAAVQVPFAPLVGALTGAGSLIPVVGMKIVYFPVGAILTVGAVASGQATAIGYVLLFLILAFVVVDTIPDFLIRPYVSGNRTHVGLLMFAYILGPIVFGAYGIFLGPILLVLVAQFFRTVAPYVATGEPPDQSKLYEY,failed
13,MLKIFSTQLSGYFSRVSQKEEMNIEDSARLLAQALVGEGFIYLHGTNEMEGVVAEALFGAEPMKQAKRLFENGKEVEVTSADRVLLISRFSTDEEVVAIAKKLQADGHSIVGISAIQEGNESLEQYTDVHIDTKLLKGLIPDDEGNRYGFPSLMIALFAYHGIKFTIDEMLNEY,not failed
14,LYPILIGIYASVIPFYIALYSTFRLLSYIDENKAFSQISVKALNNIKHCTIAISILYMATMPFVYLLADKDDAPGLIIIGMVPIFASLVISVFSAVLQRLLQEAIDIKSENDLTV,failed
15,MTELVTFGETMLRLSPPGDERLETADQYAVRAAGAESNVAVAAQRLGVDAMWASKLPDSPVGRRVTGELKHHGVSVDVAWDDSDSARQGTYYLEQGSPPRGNDVIYDRQNASVTTATPAELPTEAIADAAGFHTSGITPALSETLESTTADLLSLAQDAGTTTSFDLNYRSKLWTPAEARSVLTELFPSVDLLVVAERDANVVLDRTGDAETIARDLAAEYGFEATVITRGSDGALALADGTVTEQPTFESTDAHPVGTGDSFVGGFLSQYLSGGTVADGLAWGAATAALKRTIPGDIAVVSPDEIRSILSGDTEAISR,failed
16,PGFIDMHAHSELRLFENPGAREKLTQGITTEVLGQDGVSVAPVPPNLTDEWAERVKSLDGTLGETWPWHTVSGYLEALESVEPAVNCAYYAPHGNIRSMLAGFEDRPLSGEHVVAAGPVTGQRLDRPKSDHDTAPGELDAIRQELEVALEEGAFGMSKGMIYPPSSYARDDELVALADTLAKRDSFMISHVWNETDRVVESIDRYLDICRRGGCHAHVSHLKVGGQQNWGDSEAVLDLFDDAVDRGQRVTFDQYPYTAGSTMLTALLPPWARQGDSEAIRHRLNSAAVRDRIAADISQPGDWENLAYAAGSWDNILITRTGSGRYQGDTIADIAAEMDREPVDAMCELLVAEELDVTMADFVMAETDIERFLADDRGTFCTDGIFGGKPHPRAIGAFSRILERYVRERNVLSPELLAYKAAGNPADILG,failed
